We go through one substance from publication PMC8758671.

Assay [1] addresses porcine trypsin (porcine) (UniProt P00761).
Assay [2] has the same target. The assay is described as follows: enzyme inhibition kinetics (double-reciprocal, Lineweaver-Burk plot); 0, 66.66 and 133.33 ηmol L^−1 rTcTI against 10 µg porcine trypsin, 15 min at 37 °C, then substrate BApNA at 0.04–0.42 (printed ηmol L^−1) in 240 µL; absorbance at 410 nm; quadruplicate; competitive inhibition.

Sequence of UniProt P00761 (P00761 9-231): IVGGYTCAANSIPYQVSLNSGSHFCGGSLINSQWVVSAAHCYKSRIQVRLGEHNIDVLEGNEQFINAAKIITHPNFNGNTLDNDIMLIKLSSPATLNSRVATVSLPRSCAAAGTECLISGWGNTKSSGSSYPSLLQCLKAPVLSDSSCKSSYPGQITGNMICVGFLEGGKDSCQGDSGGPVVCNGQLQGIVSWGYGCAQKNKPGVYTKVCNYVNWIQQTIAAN

“recombinant Theobroma cacao trypsin inhibitor (rTcTI) (natural protein)” displayed a residual trypsin activity (hydrolysis of BApNA, absorbance at 410 nm) with rTcTI rising from 0.5 to 1.2 μmol L^−1; 70% at the lower concentration in assay [1] of 12%. In assay [2], this substance displayed a Ki of 0.408 µM.

By Ki is commonly meant a measure of affinity in units of concentration, obtained from inhibition or displacement. The low end stands for tighter binding, the high end for weaker binding.
